Laboratory results as given in article PMC4615642 (RNA Biology, 2015).

Legend:
SEC-MALS = biological target: the molecule itself; test: SEC-MALS
[1] = biological target: T1, Myo4p-C (C-terminal cargo-binding region of Myo4p, amino acids 923-1471, His6 fusion) (S. cerevisiae, UniProt P32492 923-1471); test: SEC-MALS
T1 sequence (looked up): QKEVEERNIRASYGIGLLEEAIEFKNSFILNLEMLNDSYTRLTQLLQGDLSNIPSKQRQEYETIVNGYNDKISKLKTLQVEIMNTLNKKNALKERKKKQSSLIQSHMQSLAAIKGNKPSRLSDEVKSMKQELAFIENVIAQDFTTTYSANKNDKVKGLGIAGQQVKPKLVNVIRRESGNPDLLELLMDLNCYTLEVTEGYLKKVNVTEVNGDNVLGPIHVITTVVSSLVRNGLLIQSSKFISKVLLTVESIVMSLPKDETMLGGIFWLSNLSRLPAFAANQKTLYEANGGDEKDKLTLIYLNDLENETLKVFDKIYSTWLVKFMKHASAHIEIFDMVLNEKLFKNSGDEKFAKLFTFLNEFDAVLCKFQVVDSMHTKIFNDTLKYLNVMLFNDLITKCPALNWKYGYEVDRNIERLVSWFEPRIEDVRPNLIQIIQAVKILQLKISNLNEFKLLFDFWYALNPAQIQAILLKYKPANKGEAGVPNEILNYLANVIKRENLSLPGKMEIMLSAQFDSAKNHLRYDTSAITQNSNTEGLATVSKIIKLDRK

B1: She3p-His6 (full-length She3p) (natural protein, S. cerevisiae, UniProt P38272 1-425, looked up)
chain: MSDQDNTQTSSSKLAPHHNIFMANLESSPTKDRNTSSQNASSSRVIESLHDQIDMLTKTNLQLTTQSQNLLSKLELAQSKESKLLENLNLLKNENENLNSIFERKNKKLKELEKDYSELSNRYNEQKEKMDQLSKLAKNSSAIEQSCSEKLQNMEVNYNSLLESQNLYRDHYSDEISKLNEKIGLLELELSNQNLNYGSDTSSNSDIELNLNKFNDSVKDLKSLETEKDSKLSKIITHSLDELNLQSWLNLYQTNENLISTFAEKMDLKDVLKRNDEKISNKGAVVQTLKKNVQTQVESNNADALSSNNAQDMLPIKMVKLRKTPNTNDSSSNGNSSNNKRRSFYTASPLLSSGSIPKSASPVLPGVKRTASVRKPSSSSSKTNVTHNNDPSTSPTISVPPGVTRTVSSTHKKKGNSMVVHGAQS
stoichiometry N (SEC-MALS): 2 | stoichiometry N [1]: 2 She3p per Myo4p
